Experimental data taken from the array DNA melting data of Ke et al..

Assay: melting temperature; UV melt of duplexes

| Substance | Tm (sodium 0.07 M, strand 2 µM) [°C] | Tm (sodium 0.12 M, strand 2 µM) [°C] | Tm (sodium 0.22 M, strand 2 µM) [°C] | Tm (sodium 0.62 M, strand 2 µM) [°C] | Tm (sodium 1.02 M, strand 2 µM) [°C] | other results |
| --- | --- | --- | --- | --- | --- | --- |
| TACTTCCAGTGCTCAGCGTA+TACGCTGAGCACTGGAAGTA ((((((((((((((((((((+)))))))))))))))))))) | 60.3 | 64.4 | 67.7 | 71.6 | 73.6 |  |
| TTCCAAAAGGAGTTATGAGTTGCGA+TCGCAACTCATAACTCCTTTTGGAA (((((((((((((((((((((((((+))))))))))))))))))))))))) | 59.1 | 63 | 67.2 | 71.6 | 73.8 |  |
| CTCGTACCTTCCGGTCC+GGACCGGAAGGTACGAG (((((((((((((((((+))))))))))))))))) |  |  |  |  |  | Tm (sodium 0.1 M, strand 4 µM): 60.6 °C |
| AATATATAGCTATCGAT+ATCGATAGCTATATATT (((((((((((((((((+))))))))))))))))) |  |  |  |  |  | Tm (sodium 0.12 M, strand 4 µM): 49.7 °C |
| AACGCGTGAATTCTGGCCAA+TTGGCCAGAATTCACGCGTT ((((((((((((((((((((+)))))))))))))))))))) |  |  |  |  |  | Tm (sodium 0.12 M, strand 6 µM): 66.6 °C |
| AGCTGCAGTGGATGTGAGAA+TTCTCACATCCACTGCAGCT ((((((((((((((((((((+)))))))))))))))))))) | 59.7 | 63.5 | 67.6 | 71.3 | 73.1 |  |
| AATATATATAGAGTAATTATAA+TTATAATTACTCTATATATATT ((((((((((((((((((((((+)))))))))))))))))))))) |  |  |  |  |  | Tm (sodium 0.12 M, strand 5 µM): 45.1 °C |
| ATGCAATGCTACATATTCGC+GCGAATATGTAGCATTGCAT ((((((((((((((((((((+)))))))))))))))))))) | 55.2 | 59.5 | 62.9 | 67 | 68.9 |  |
| ATACGCGAGGATCCAGCGCAAT+ATTGCGCTGGATCCTCGCGTAT ((((((((((((((((((((((+)))))))))))))))))))))) |  |  |  |  |  | Tm (sodium 0.12 M, strand 4 µM): 71.1 °C |
| ACGCCCACAGGATTAGGCTGGCCCACATTG+CAATGTGGGCCAGCCTAATCCTGTGGGCGT ((((((((((((((((((((((((((((((+)))))))))))))))))))))))))))))) | 71.3 | 74.7 | 78.5 | 82.7 | 84 |  |
| AGCAGTCCGCCACACCCTGA+TCAGGGTGTGGCGGACTGCT ((((((((((((((((((((+)))))))))))))))))))) | 66.5 | 69.9 | 74 | 76.9 | 78.5 |  |
| ATAAATAAAGCTTTATTTAT+ATAAATAAAGCTTTATTTAT ((((((((((((((((((((+)))))))))))))))))))) |  |  |  |  |  | Tm (sodium 0.12 M, strand 7 µM): 46.2 °C |
| AATATATATGAATTCTAATTATAA+TTATAATTAGAATTCATATATATT ((((((((((((((((((((((((+)))))))))))))))))))))))) |  |  |  |  |  | Tm (sodium 0.12 M, strand 4.4 µM): 46.2 °C |
| ACTGGCGAGGATCCAGCGGTCA+TGACCGCTGGATCCTCGCCAGT ((((((((((((((((((((((+)))))))))))))))))))))) |  |  |  |  |  | Tm (sodium 0.12 M, strand 4.1 µM): 71.8 °C |
| AGATCATATATATCGAT+ATCGATATATATGATCT (((((((((((((((((+))))))))))))))))) |  |  |  |  |  | Tm (sodium 0.12 M, strand 4 µM): 49.2 °C |
| GTCATACGACTGAGTGCAACATTGTTCAAA+TTTGAACAATGTTGCACTCAGTCGTATGAC ((((((((((((((((((((((((((((((+)))))))))))))))))))))))))))))) | 62.7 | 66.8 | 70.8 | 75.9 | 76.9 |  |
| ATAAATTAGGATCCATATAAAT+ATTTATATGGATCCTAATTTAT ((((((((((((((((((((((+)))))))))))))))))))))) |  |  |  |  |  | Tm (sodium 0.12 M, strand 5.8 µM): 47.7 °C |
| AAAGGTGTCGCGGAGAGTCGTGCTG+CAGCACGACTCTCCGCGACACCTTT (((((((((((((((((((((((((+))))))))))))))))))))))))) | 69.6 | 73.6 | 77.4 | 81.2 | 82.4 |  |
| CTCGTACCTTTCCGGTCC+GGACCGGAAAGGTACGAG ((((((((((((((((((+)))))))))))))))))) |  |  |  |  |  | Tm (sodium 0.1 M, strand 4 µM): 61.7 °C |
| ATATATATGAATTCATATATAT+ATATATATGAATTCATATATAT ((((((((((((((((((((((+)))))))))))))))))))))) |  |  |  |  |  | Tm (sodium 0.12 M, strand 6 µM): 48.9 °C |
| GCCCCTCCACTGGCCGACGGCAGCAGGCTC+GAGCCTGCTGCCGTCGGCCAGTGGAGGGGC ((((((((((((((((((((((((((((((+)))))))))))))))))))))))))))))) | 76.3 | 79.8 | 83.6 | 87.1 | 87.7 |  |
| CAGCCTCGTTCGCACAGCCC+GGGCTGTGCGAACGAGGCTG ((((((((((((((((((((+)))))))))))))))))))) | 67.2 | 70.7 | 74 | 77.7 | 78.1 |  |

| Substance | Tm (sodium 0.07 M, strand 2 µM) [°C] | Tm (sodium 0.12 M, strand 2 µM) [°C] | Tm (sodium 0.22 M, strand 2 µM) [°C] | Tm (sodium 0.62 M, strand 2 µM) [°C] | Tm (sodium 1.02 M, strand 2 µM) [°C] | other results |
| --- | --- | --- | --- | --- | --- | --- |
| GACCTGACGTGGACCGCTCCTGGGCGTGGT+ACCACGCCCAGGAGCGGTCCACGTCAGGTC ((((((((((((((((((((((((((((((+)))))))))))))))))))))))))))))) | 74.4 | 78.4 | 81.5 | 85.2 | 86.4 |  |
| CCATCATTGTGTCTACCTCA+TGAGGTAGACACAATGATGG ((((((((((((((((((((+)))))))))))))))))))) | 55.6 | 59.5 | 63.1 | 67.3 | 68.5 |  |
| GCGGGCGAGGATCCAGCGCGCG+CGCGCGCTGGATCCTCGCCCGC ((((((((((((((((((((((+)))))))))))))))))))))) |  |  |  |  |  | Tm (sodium 0.12 M, strand 5.3 µM): 77.2 °C |
| AAGCTATATATATCGAT+ATCGATATATATAGCTT (((((((((((((((((+))))))))))))))))) |  |  |  |  |  | Tm (sodium 0.12 M, strand 5 µM): 50.2 °C |
| TATGTATATTTTGTAATCAG+CTGATTACAAAATATACATA ((((((((((((((((((((+)))))))))))))))))))) | 44.4 | 47.7 | 52.6 | 57.6 | 61.2 |  |
| ATGGGTGGGAGCCTCGGTAGCAGCC+GGCTGCTACCGAGGCTCCCACCCAT (((((((((((((((((((((((((+))))))))))))))))))))))))) | 70.7 | 74.5 | 78.2 | 81.6 | 83.4 |  |
| GTTCACGTCCGAAAGCTCGAAAAAGGATAC+GTATCCTTTTTCGAGCTTTCGGACGTGAAC ((((((((((((((((((((((((((((((+)))))))))))))))))))))))))))))) | 64.3 | 68.2 | 72.1 | 77.1 | 78.7 |  |
| TAACCATACTGAATACCTTTTGACG+CGTCAAAAGGTATTCAGTATGGTTA (((((((((((((((((((((((((+))))))))))))))))))))))))) | 56.5 | 60.2 | 64.3 | 68.9 | 71.3 |  |
| CTTCAACGGATCAGGTAGGACTGTGGTGGG+CCCACCACAGTCCTACCTGATCCGTTGAAG ((((((((((((((((((((((((((((((+)))))))))))))))))))))))))))))) | 67.6 | 71.7 | 74.7 | 78.8 | 80.1 |  |
| TGGATTCTACTCAACCTTAGTCTGG+CCAGACTAAGGTTGAGTAGAATCCA (((((((((((((((((((((((((+))))))))))))))))))))))))) | 59 | 63.1 | 67.1 | 71.3 | 73.6 |  |
| GATGACGCTAGCTAGCTAGGAC+GTCCTAGCTAGCTAGCGTCATC ((((((((((((((((((((((+)))))))))))))))))))))) |  |  |  |  |  | Tm (sodium 0.15 M, strand 1.1 µM): 64 °C |
| TAGTATATCGCAGCATCATACAGGC+GCCTGTATGATGCTGCGATATACTA (((((((((((((((((((((((((+))))))))))))))))))))))))) | 61.2 | 64.7 | 69.1 | 72.8 | 75 |  |
| TTATGTATTAAGTTATATAGTAGTAGTAGT+ACTACTACTACTATATAACTTAATACATAA ((((((((((((((((((((((((((((((+)))))))))))))))))))))))))))))) | 50.7 | 55 | 59.3 | 65.1 | 66.6 |  |
| TCAGTAGGCGTGACGCAGAGCTGGCGATGG+CCATCGCCAGCTCTGCGTCACGCCTACTGA ((((((((((((((((((((((((((((((+)))))))))))))))))))))))))))))) | 72.2 | 75.7 | 79.3 | 83.3 | 84.6 |  |
| CTTAAGATATGAGAACTTCAACTAATGTGT+ACACATTAGTTGAAGTTCTCATATCTTAAG ((((((((((((((((((((((((((((((+)))))))))))))))))))))))))))))) | 56.8 | 61.3 | 64.9 | 70.5 | 71.8 |  |
| GCGGATTAGGATCCATATCGCG+CGCGATATGGATCCTAATCCGC ((((((((((((((((((((((+)))))))))))))))))))))) |  |  |  |  |  | Tm (sodium 0.12 M, strand 4 µM): 65.4 °C |
| CGGAATCCATGTTACTTCGGCTATC+GATAGCCGAAGTAACATGGATTCCG (((((((((((((((((((((((((+))))))))))))))))))))))))) | 60.9 | 64.7 | 68.7 | 73.3 | 74.8 |  |
| CGTACTAGCGTTGGTCATGG+CCATGACCAACGCTAGTACG ((((((((((((((((((((+)))))))))))))))))))) | 59.6 | 63.1 | 66.6 | 70.5 | 71.1 |  |
| TAGTGGCGATTAGATTCTGC+GCAGAATCTAATCGCCACTA ((((((((((((((((((((+)))))))))))))))))))) | 57 | 60.6 | 64.8 | 69.1 | 71.2 |  |
| AAATAAATAGCTATTTATTT+AAATAAATAGCTATTTATTT ((((((((((((((((((((+)))))))))))))))))))) |  |  |  |  |  | Tm (sodium 0.12 M, strand 7 µM): 47.1 °C |
| GAGATTGTTTCCCTTTCAAA+TTTGAAAGGGAAACAATCTC ((((((((((((((((((((+)))))))))))))))))))) | 49.3 | 52.8 | 57.6 | 62.6 | 65.3 |  |
| AACGCCGGTAGAGTGCGCGCAA+TTGCGCGCACTCTACCGGCGTT ((((((((((((((((((((((+)))))))))))))))))))))) |  |  |  |  |  | Tm (sodium 0.12 M, strand 5.9 µM): 79.1 °C |
